Experimental data taken from the supplement of paper PMC9233669.
Variants at the floor of the assay were thinned out.

How the values were obtained:
biotinyl-Phe-oxazolone = experiment: self-aminoacylation, catalytic enhancement (BFO) (fold over background); higher = more active; k-Seq, kA / k0A0; sequences stand for … in GGGAAUGGAUCCACAUCUACGAAUUC…UUCACUGCAGACUUGACGAAGCUG
In short: (§1)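 Mutagenized RNA pools (0.43 μM; 21-nt variable region) were treated with 2–1250 μM of each biotinyl-aminoacyl-oxazolone. Conditions were 50 μL HEPES/NaCl/KCl/MgCl2/CaCl2 buffer, 5% acetonitrile, pH 6.9–7.0, room temperature, 90 minutes. Catalytic enhancement, the median kA relative to the uncatalyzed rate, was derived from streptavidin capture, qPCR and Illumina sequencing.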

biotinyl-Trp-oxazolone = experiment: self-aminoacylation, catalytic enhancement (BWO) (fold over background); higher = more active; k-Seq, kA / k0A0; sequences stand for … in GGGAAUGGAUCCACAUCUACGAAUUC…UUCACUGCAGACUUGACGAAGCUG
In short: as §1

| Sequence | self-aminoacylation (biotinyl-Phe-oxazolone) | self-aminoacylation (biotinyl-Trp-oxazolone) |
| --- | --- | --- |
| AAAUUUGCUAAUAGUCGUAAG [Fam3.1 aminoacylation ribozyme variant] | 10.3 | 4.02 |
| AAGUAUGCUAAUAGUCACAAG [Fam3.1 aminoacylation ribozyme variant] | 9.66 | 3.36 |
| AAGUGUGCUAAUAGUCACAAG [Fam3.1 aminoacylation ribozyme variant] | 6.87 | 3.91 |
| AAGUUUACUAAUUGUCGCAAG [Fam3.1 aminoacylation ribozyme variant] | 2.6 | 2 |
| AAGUUUGCAAAUAGUCGCCAG [Fam3.1 aminoacylation ribozyme variant] | 2.38 | 2.05 |
| AAGUUUGCUAACAGUCGUAAG [Fam3.1 aminoacylation ribozyme variant] | 27.2 | 7.81 |
| AAGUUUGCUAUUAGUCGCGAG [Fam3.1 aminoacylation ribozyme variant] | 4.31 | 2.3 |
| AAGUUUUCUAAAAGUCGCAAG [Fam3.1 aminoacylation ribozyme variant] | 2.92 | 2.01 |
| AAUACCCUGGUCAUCGAGUGC [Fam2.1 aminoacylation ribozyme variant] | 3.36 | 2.03 |
| AAUUUUGCUAAUAGUCGCAAG [Fam3.1 aminoacylation ribozyme variant] | 5 | 2.43 |
| ACACACUUCAAGGAAUCGGUC [Fam1B.1 aminoacylation ribozyme variant] | 3.08 | 2.96 |
| ACACAGUUCAAGCAAUCGGUC [Fam1B.1 aminoacylation ribozyme variant] | 3.76 | 3.46 |
| ACGCACUUCAAGCAAUCGGUC [Fam1B.1 aminoacylation ribozyme variant] | 33.8 | 19.9 |
| AGGUUUGCUAAUAGUCACAAG [Fam3.1 aminoacylation ribozyme variant] | 9.69 | 2.76 |
| AGGUUUGCUCAUAGUCGCAAG [Fam3.1 aminoacylation ribozyme variant] | 2.95 | 2.45 |
| AUACUUCAAACAAUCGGUCUU [Fam1A.1 aminoacylation ribozyme variant] | 6.84 | 4.01 |
| AUACUUCAACCAAUCGGUCUG [Fam1A.1 aminoacylation ribozyme variant] | 5.09 | 4.18 |
| AUAGUUCAAACAAUCGGUCUG [Fam1A.1 aminoacylation ribozyme variant] | 4.05 | 3.06 |
| AUUACCCUGGCCAUCGAGUAA [Fam2.1 aminoacylation ribozyme variant] | 3.72 | 2.74 |
| AUUACGCUGCUCAUCGAGUGA [Fam2.1 aminoacylation ribozyme variant] | – | 2.69 |
| AUUAGCCUGGUCGUCGAGUGA [Fam2.1 aminoacylation ribozyme variant] | 7.67 | 2.09 |

| Sequence | self-aminoacylation (biotinyl-Phe-oxazolone) | self-aminoacylation (biotinyl-Trp-oxazolone) |
| --- | --- | --- |
| CAACUUCAAACAAUCGCUCUG [Fam1A.1 aminoacylation ribozyme variant] | 3.06 | 2.41 |
| CAACUUCAAACAAUCGGUCUA [Fam1A.1 aminoacylation ribozyme variant] | 26.4 | 13.9 |
| CAGUUUGCUAAUAGUCGUAAG [Fam3.1 aminoacylation ribozyme variant] | 5.91 | 2.28 |
| CCAAACUUCAAGCAAUCAGUC [Fam1B.1 aminoacylation ribozyme variant] | 9.55 | 3.03 |
| CCACACGUCAAGCAAUCGGCC [Fam1B.1 aminoacylation ribozyme variant] | 3.91 | 2 |
| CCACACUCCAGGCAAUCGGUC [Fam1B.1 aminoacylation ribozyme variant] | – | 2.04 |
| CCACACUUCAAACGAUCGGUC [Fam1B.1 aminoacylation ribozyme variant] | 3.66 | 4.08 |
| CCACACUUCAAGAAAUCGGUC [Fam1B.1 aminoacylation ribozyme variant] | 10.8 | 6.66 |
| CCACACUUCAAGAAAUCGGUU [Fam1B.1 aminoacylation ribozyme variant] | – | 2.03 |
| CCACACUUCAAGCAAUCAGUC [Fam1B.1 aminoacylation ribozyme variant] | 21.5 | 6.45 |
| CCACACUUCAAGUAAUCGGCC [Fam1B.1 aminoacylation ribozyme variant] | 3.03 | 4.17 |
| CCACACUUCAAUAAAUCGGUC [Fam1B.1 aminoacylation ribozyme variant] | 11.7 | 6.22 |
| CCACAUUUCAACCAAUCGGUC [Fam1B.1 aminoacylation ribozyme variant] | 7.78 | 5.58 |
| CCACUCUUCAAUCAAUCGGUC [Fam1B.1 aminoacylation ribozyme variant] | 33.5 | 20.3 |
| CCACUUCAAACAAUCGCUCUG [Fam1A.1 aminoacylation ribozyme variant] | 3.32 | 2.69 |
| CCCCACUUCAUGCAAUCGGUC [Fam1B.1 aminoacylation ribozyme variant] | 2.57 | 2.78 |
| CGACACUUCAAGCAAUCGGUC [Fam1B.1 aminoacylation ribozyme variant] | 13.4 | 7.38 |
| CGACUUCAAAAAAUCGGUCUG [Fam1A.1 aminoacylation ribozyme variant] | 15.3 | 14 |
| CUACCCUUCAAGCAAUCGGUC [Fam1B.1 aminoacylation ribozyme variant] | 8.35 | 5.52 |
| CUACCUCAAACAAUCGGUCUG [Fam1A.1 aminoacylation ribozyme variant] | 3.14 | 2.19 |
| CUACGUGAAACAAUCGGUCUG [Fam1A.1 aminoacylation ribozyme variant] | 5.84 | 2.03 |

| Sequence | self-aminoacylation (biotinyl-Phe-oxazolone) | self-aminoacylation (biotinyl-Trp-oxazolone) |
| --- | --- | --- |
| CUACUUCAAAAAAUCGGUCGG [Fam1A.1 aminoacylation ribozyme variant] | 4.54 | 5.6 |
| CUACUUCAAAAAAUCGGUCUC [Fam1A.1 aminoacylation ribozyme variant] | 8.87 | 5.93 |
| CUACUUCAAACAAUCAGACUG [Fam1A.1 aminoacylation ribozyme variant] | 8.24 | 2.98 |
| CUACUUCAAACAAUCGGAAUG [Fam1A.1 aminoacylation ribozyme variant] | 7.74 | 4.46 |
| CUACUUCAAAGAAUCGGUCUC [Fam1A.1 aminoacylation ribozyme variant] | 4.32 | 3.26 |
| CUACUUCAAAUAAUCGGUCUU [Fam1A.1 aminoacylation ribozyme variant] | 9.54 | 5.86 |
| CUACUUCAACCAAUCGGUGUG [Fam1A.1 aminoacylation ribozyme variant] | 4.96 | 4.66 |
| CUACUUCAAGAAAUCGGUCUG [Fam1A.1 aminoacylation ribozyme variant] | 4.36 | 3.05 |
| CUACUUCAAGCAAUCGGUCUG [Fam1A.1 aminoacylation ribozyme variant] | 13.6 | 7.74 |
| CUACUUCAAGUAAUCGGUCUG [Fam1A.1 aminoacylation ribozyme variant] | 9.14 | 6.74 |
| CUACUUCAGACAAUCGGCCUG [Fam1A.1 aminoacylation ribozyme variant] | 3.82 | 2.23 |
| CUCCUUCAAACAAUCGGACUG [Fam1A.1 aminoacylation ribozyme variant] | 12.9 | 8.83 |
| CUCCUUCAAACAAUCGGUCAG [Fam1A.1 aminoacylation ribozyme variant] | 14 | 7.87 |
| CUCCUUCAAACAAUCGGUCCG [Fam1A.1 aminoacylation ribozyme variant] | 6.9 | 6.67 |
| CUGCCUCAAACAAUCGGUCUG [Fam1A.1 aminoacylation ribozyme variant] | 34.5 | 20.9 |
| CUGCUUCAAACAAUCGAUCUG [Fam1A.1 aminoacylation ribozyme variant] | 7.44 | 2.77 |
| CUUCACCUAGGUCAUCGGGUC [Fam2.2 aminoacylation ribozyme variant] | 3.47 | 2.29 |
| CUUCUUCAAACAAUCGGUGUG [Fam1A.1 aminoacylation ribozyme variant] | 4.48 | 2.46 |
| CUUCUUCAAAUAAUCGGUCUG [Fam1A.1 aminoacylation ribozyme variant] | 10.7 | 7.57 |
| GUACGUCAAACAAUCGGUCUG [Fam1A.1 aminoacylation ribozyme variant] | – | 2.71 |
